Data from the nanobody polyreactivity screen of Harvey et al. (2022).

Experiment: yeast display, Sf9 membrane polyspecificity reagent, FACS + sequencing; frameworks hold sequencing errors
Method in brief: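 Genes from sorted yeast were amplified by colony PCR, read by MiSeq 2 × 250 sequencing and filtered on CDR length. These cells carried a synthetic nanobody library in Saccharomyces cerevisiae BJ5465 and were sorted by FACS into low and high (top ~1%) gates on anti-HA and streptavidin fluorescence. Polyreactivity is labelled according to the gate of origin.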

Sequence | polyreactivity (PSR sort gate)
QVQLVESGGGLVQAGGSLRLSCAASGRIFAPYAMGWYRQAPGKERELVAAITSGGSTNYADSVKGRFTISRDNAKNTVYVQMNSLKPEDTAVYYCAAEASYNYGKYVVTYDYWGQGTQVTVSS | high polyreactivity
QVQLVESGGGLVQAGGSLRLSCAASGRIFAPYDMGWYRQAPGKERELVASITSGGSTNYTDSVKGRFTISRDNAKNTVYLQMNSLKPEDTAVYYCNTAKISEPTDPLQRVWGGTYDYWGQGTQVTVSS | low polyreactivity
QVQLVESGGGLVQAGGSLRLSCAASGRIFARNALGWYRQAPGKEGELVARIRASGGSTYYADSVKGRFTISRDNEKNTVYLQMNSLKPEDTAVYYCNARTSSPYRVDYWGQGTQVTVSS | high polyreactivity
QVQLVESGGGLVQAGGSLRLSCAASGRIFARNAMGWYREAPGKERELVATIRVGGGSTYYADSVKGRFTISRHNAKNTVYLQMNSLKPEDTAVYYCAVRQLYSYPGDRRGYYWGQGTQVNVSS | low polyreactivity
QVQLVESGGGLVQAGGSLRLSCAASGRIFARNAMGWYRQAPGKERELVAGITWSGSSTYYADSVKGRFTISRDNAKNTVYLQMNSLKPEDTAVYYCAVDYYVGSLRIDHDYWGQGTQVTVSS | low polyreactivity
QVQLVESGGGLVQAGGSLRLSCAASGRIFARNAMGWYRQAPGKERELVATIRVGGGSTYYADSVKGRFTISRDNAKNTVYLQMNSLKPEDTAVYYCAVRQLYSYPGDRRGYYWGQGTQVTVSS | low polyreactivity
QVQLVESGGGLVQAGGSLRLSCAASGRIFARYAMGWNRQAPGKERELVAAISFRGGSTYYADSVKGRFTISRDNAKNTVYLQINSLKPEDTAVYYWNARYGRGGYDYWGQGTQVTVSS | high polyreactivity
QVQLVESGGGLVQAGGSLRLSCAASGRIFARYAMGWYRPAPGKERELVAAITKSVGSTYYADSVKGRFTISRDNAKYTVYLQMNRLKPEDTAVYYCNAVARGYGYDYWGQGTQVTVSS | high polyreactivity
QVQLVESGGGLVQAGGSLRLSCAASGRIFARYAMGWYRQAPGKETELVAAISRGGSTKYADSVKGRFTISRDNAKNTVYLQMNSLNPVDTAVYYCARQLWGSPYGAYYAGDYWGQGTQVTVSS | low polyreactivity
QVQLVESGGGLVQAGGSLRLSCAASGRIFARYAMGWYRQAPGKQRELVAAITVSGDNTYYADSVKGRFTISRDNAKNTVYLQMNSLKPEDTAVYYCAVRAVLLFGFFDYDYWGQGTQLTVSS | low polyreactivity
QVQLVESGGGLVQAGGSLRLSCAASGRIFARYTMGWYRQAPGKEREFVAGIRSSGGRTYYADSVKGRFTISRDNAKNTVYLQMNSLKPEDTAVYYCKAGGSWYFARYDYWGQGTLVTVSS | low polyreactivity
QVQLVESGGGLVQAGGSLRLSCAASGRIFASYAMGWYRQAPGKERELVASISKSVGRTYYSDSVKGRFTISRDNAKNTVYLQMNSLKPEDTAVYDCAAISYFPLRTRYERWFYYWGQGTQVTVSS | high polyreactivity
QVQLVESGGGLVQAGGSLRLSCAASGRIFATNGMGWYRQATGKERELVATSTRSAGRTYYADSVKGRFTISRDNAKNTVYLQMNSLKPEDTAVYYCAADGYSTAVDDTVRYIVEYEYWGQGTQVTVSS | low polyreactivity
QVQLVESGGGLVQAGGSLRLSCAASGRIFATYAMGWSRQAPGKERELVAAISDGGGITYYADSVKGRFTISRDNAKNTVYLQMNSLKPDDTAVYYCARTYARYNFGYWGQGTQVTVSS | low polyreactivity
QVQLVESGGGLVQAGGSLRLSCAASGRIFAVYAMGWYRQAPGKEREFVAAISYSGGITYYADSVKGRFTISRDTAKNTVYLQMNSLKPEDTAVYYCNAYYYFWGQGTQVTVSS | low polyreactivity
QVQLVESGGGLVQAGGSLRLSCAASGRIFAVYAMGWYRQAPGKERELVAAINWNDGSTYYADSVKGRFTISRDNAKNTVYLQMNSLKPEDTAVYYCAARALSRSVYGKSGYKYGYWGQGTQVTVSS | high polyreactivity

Sequence | polyreactivity (PSR sort gate)
QVQLVESGGGLVQAGGSLRLSCAASGRIFAWYAMGWYRQAPGKEREFVAASTYRAARTYYADSVKGRFTISRDNAKNTVYLQMNSLNPEDTAVYYCNRQFGRRVYISHPGPGYWGQGTQVTVSS | high polyreactivity
QVQLVESGGGLVQAGGSLRLSCAASGRIFAWYTMVWYRQAPGKERELVATISSSGGSTYYADSVKGLFTISRDNAKNTVYLQMNSLKPEDTAVYYCAAQYYPYSYAHRYGYCGQGTQVTVSS | high polyreactivity
QVQLVESGGGLVQAGGSLRLSCAASGRIFAYNAMGWYRPAPGKERELVADISSGGNTYYADSVKGRFTISRDNAKNTVYLQMNSLKPEDTAVYYCAADIAWYTHYHRIFDYWGQGTQVTVSS | low polyreactivity
QVQLVESGGGLVQAGGSLRLSCAASGRIFAYNAMGWYRQAPGKERELVAAIDWSGGRTYYADSVKGRFTISRDNEKNTVYLQMNSLKPEDTAVYYCATDVNSYGYYYWGQGTQVTVSS | high polyreactivity
QVQLVESGGGLVQAGGSLRLSCAASGRIFAYNAMGWYRQAPGKEREVVAAIDSGGDTNYADSVKGRFTISRDNAKNTVYLQMNSLKPEDTAVYYCNVTYSGQATFAYTDSARYDYWGQGTQVTVSS | low polyreactivity
QVQLVESGGGLVQAGGSLRLSCAASGRIFAYYAMGWNRQAPGKERELVAAISRSGVSTYYADSVKGRFTISRDNAKNTVYLQRNSLKPEDTAVYYCAARWRSGFTSGDYWGQGTLVTVSS | low polyreactivity
QVQLVESGGGLVQAGGSLRLSCAASGRIFAYYAMGWYRQAPGKERELGATITGGGDRTYYADSVKGRFTISRDNAKNTVYLQMNSLKPEDTAVYYCNARVWYYSPYYYWGQRTQVTVSS | low polyreactivity
QVQLVESGGGLVQAGGSLRLSCAASGRIFAYYAMGWYRQAPGKERELVAAINTSGATTNYADSVKGRFTISRDKAKNTVYLQMNSLKPEDTAVYYCAAWKGVYTYNYWGQGTQVTVSS | high polyreactivity
QVQLVESGGGLVQAGGSLRLSCAASGRIFAYYAMGWYRQAPGKERELVAAISSGGTTNYADSVKGRFTISRDNAKNTVYLQMNSLKPEDTAVYYCNADGWRRSRQYYYWGQGTQVTVSS | low polyreactivity
QVQLVESGGGLVQAGGSLRLSCAASGRIFAYYAMGWYRQAPGKERELVAAITSRGGRTYYADSVKGRFTISRDNAKNTVYLQMNSLKPEDTAVYYCAAKGRPDGKYDYWGQGTQVTVSS | high polyreactivity
QVQLVESGGGLVQAGGSLRLSCAASGRIFAYYAMGWYRQAPGTERELVAAISRSGVSTYYADSVKGRFTISRDNAKNTVYLQMNSLKPEDTAVYYCAAERYWTYYSGFVYGGDNYWGQGTQVTVSS | low polyreactivity
QVQLVESGGGLVQAGGSLRLSCAASGRIFAYYTMGWYRQAPGKERELVAAITKRGGSTYYADSVKGRFTISRDNAKNTVYLQMNSLKPEDTAVYYCAADPHRYRYRSPHDYWGQGTQVTVSS | high polyreactivity
QVQLVESGGGLVQAGGSLRLSCAASGRIFAYYTMGWYRQAPGKERELVAAITSRGGSTYYADSVKGRFTISRDNAKKTVYLQMNSLKPEDTAVYYCAALRPSNVDYWGQGTQVTVSS | high polyreactivity
QVQLVESGGGLVQAGGSLRLSCAASGRIFAYYVMGWYRQAPGKERELVASISSGGGTYYADSVKGRFTISRDNAKNTVYLQMNSLKPEDTAVYYCAARWRRYVYPDGHLFWYDYWGQGTQVTVSS | high polyreactivity
QVQLVESGGGLVQAGGSLRLSCAASGRIFDANAMGWYRQAPGKERELVAAITVSGGSTYYADSVKGRFTISRDNAKNTVYLEMNSLKPEDTAVYYCAKSLVPWWYKVDYDYWGQGTQVTVSS | low polyreactivity
